T1: RANKL-兔Fc (rabbit, UniProt O14788 140-317 (human entry), limits assumed)
T1 sequence (looked up): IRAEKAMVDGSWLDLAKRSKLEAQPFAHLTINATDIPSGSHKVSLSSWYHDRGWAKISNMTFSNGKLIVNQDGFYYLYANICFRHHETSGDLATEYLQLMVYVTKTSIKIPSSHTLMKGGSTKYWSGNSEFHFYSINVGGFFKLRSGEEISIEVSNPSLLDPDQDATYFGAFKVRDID


Molecular target: T1, RANKL-兔Fc
Experiment: cell-based or functional assay

Binder | 异构体生物活性 IC50 | 生物学活性量效曲线 IC50 (RAW264.7 TRAP/pNPP assay); 原液 lot 20131201 | 生物学活性量效曲线 IC50 (RAW264.7 TRAP/pNPP assay); 原液 lot 20140201 | 生物学活性量效曲线 IC50 (RAW264.7 TRAP/pNPP assay); 工作参考品 lot 20140301, plate with Denosumab | 生物学活性量效曲线 IC50 (RAW264.7 TRAP/pNPP assay); 工作参考品 lot 20140301, plate with lot 20131201 | 生物学活性量效曲线 IC50 (RAW264.7 TRAP/pNPP assay); 工作参考品 lot 20140301, plate with lot 20140201
重组人源抗RANKL抗体IgG2型二硫键异构体IgG2-B型 (antibody, V domains shown) VH: EVQLLESGGGLVQPGGSLRLSCAASGFTFSSYAMSWVRQAPGKGLEWVSGITGSGGSTYYADSVKGRFTISRDNSKNTLYLQMNSLRAEDTAVYYCAKDPGTTVIMSWFDPWGQGTLVTVSS VL: EIVLTQSPGTLSLSPGERATLSCRASQSVRGRYLAWYQQKPGQAPRLLIYGASSRATGIPDRFSGSGTDFTLTISRLEPEDFAVFYCQQYGSSPRTFGQGTKVEIKR | 3 ng/mL |  |  |  |  | 
重组人源抗RANKL抗体IgG2型二硫键异构体IgG2-A型 (antibody, V domains shown) VH: EVQLLESGGGLVQPGGSLRLSCAASGFTFSSYAMSWVRQAPGKGLEWVSGITGSGGSTYYADSVKGRFTISRDNSKNTLYLQMNSLRAEDTAVYYCAKDPGTTVIMSWFDPWGQGTLVTVSS VL: EIVLTQSPGTLSLSPGERATLSCRASQSVRGRYLAWYQQKPGQAPRLLIYGASSRATGIPDRFSGSGTDFTLTISRLEPEDFAVFYCQQYGSSPRTFGQGTKVEIKR | 2.89 ng/mL |  |  |  |  | 
重组人源抗RANKL单克隆抗体IgG2型 (TK006) (antibody, V domains shown) VH: EVQLLESGGGLVQPGGSLRLSCAASGFTFSSYAMSWVRQAPGKGLEWVSGITGSGGSTYYADSVKGRFTISRDNSKNTLYLQMNSLRAEDTAVYYCAKDPGTTVIMSWFDPWGQGTLVTVSS VL: EIVLTQSPGTLSLSPGERATLSCRASQSVRGRYLAWYQQKPGQAPRLLIYGASSRATGIPDRFSGSGTDFTLTISRLEPEDFAVFYCQQYGSSPRTFGQGTKVEIKR |  | 1.07 ng/ml | 1.63 ng/ml | 1.11 ng/ml | 1.33 ng/ml | 1.34 ng/ml
